Target: IL-17-like receptor (on the BIAcore surface)
Experiment: BIAcore (SPR), negative control conditioned media

pC4 control conditioned media
response (RU): 20 RU

From US20030180892A1
